# Measurements published in the supplement of paper PMC9112550, “Optimization of the antimicrobial peptide Bac7 by deep mutational scanning” (BMC Biology, 2022).
# System: Escherichia coli TOP10
# Assay: shrunken log2 fold change of peptide-encoding DNA abundance (4.5 h post-induction vs induction); higher = less antimicrobial activity (less host growth inhibition)
# Settings: time post-induction: 4.5 h; library: site-saturation at positions 5, 18, 19, 20
# 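Further: peptides expressed intracellularly from a pBAD plasmid library in pooled LB shake-flask culture, induced with 0.3% L-arabinose, DNA abundance read by NGS, three biological replicates, DESeq2 with apeglm shrinkage.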
row,Sequence,shrunken log2 fold change
1,RRIRRRPPRLPRPRPRPLWVPRP,0.382
2,RRIRRRPPRLPRPRPRPLYRPRP,-0.121
3,RRIRRRPPRLPRPRPRPMAAPRP,1.15
4,RRIRRRPPRLPRPRPRPMACPRP,-0.0812
5,RRIRRRPPRLPRPRPRPMCLPRP,0.0511
6,RRIRRRPPRLPRPRPRPMCPPRP,-0.119
7,RRIRRRPPRLPRPRPRPMCTPRP,0.459
8,RRIRRRPPRLPRPRPRPMFEPRP,0.266
9,RRIRRRPPRLPRPRPRPMFKPRP,0.168
10,RRIRRRPPRLPRPRPRPMGDPRP,-0.251
11,RRIRRRPPRLPRPRPRPMGVPRP,0.324
12,RRIRRRPPRLPRPRPRPMIGPRP,-0.041
13,RRIRRRPPRLPRPRPRPMIQPRP,0.107
14,RRIRRRPPRLPRPRPRPMKSPRP,0.304
15,RRIRRRPPRLPRPRPRPMNRPRP,-0.321
16,RRIRRRPPRLPRPRPRPMNYPRP,-0.0341
17,RRIRRRPPRLPRPRPRPMPRPRP,0.811
18,RRIRRRPPRLPRPRPRPMQTPRP,-0.00191
19,RRIRRRPPRLPRPRPRPMQYPRP,-0.126
20,RRIRRRPPRLPRPRPRPMSYPRP,-0.0379
21,RRIRRRPPRLPRPRPRPMTFPRP,0.164
22,RRIRRRPPRLPRPRPRPMTSPRP,-0.00455
23,RRIRRRPPRLPRPRPRPMVDPRP,0.0808
24,RRIRRRPPRLPRPRPRPMYHPRP,-0.159
25,RRIRRRPPRLPRPRPRPNCRPRP,0.563

row,Sequence,shrunken log2 fold change
1,RRIRRRPPRLPRPRPRPNCWPRP,0.228
2,RRIRRRPPRLPRPRPRPNDQPRP,0.261
3,RRIRRRPPRLPRPRPRPNHCPRP,-0.142
4,RRIRRRPPRLPRPRPRPNHDPRP,0.196
5,RRIRRRPPRLPRPRPRPNIIPRP,-0.0888
6,RRIRRRPPRLPRPRPRPNKAPRP,0.158
7,RRIRRRPPRLPRPRPRPNMPPRP,-0.342
8,RRIRRRPPRLPRPRPRPNMVPRP,-0.0449
9,RRIRRRPPRLPRPRPRPNMWPRP,-0.253
10,RRIRRRPPRLPRPRPRPNNRPRP,-0.0987
11,RRIRRRPPRLPRPRPRPNNSPRP,-0.356
12,RRIRRRPPRLPRPRPRPNNVPRP,-0.312
13,RRIRRRPPRLPRPRPRPNPFPRP,0.125
14,RRIRRRPPRLPRPRPRPNPPPRP,0.451
15,RRIRRRPPRLPRPRPRPNQGPRP,0.134
16,RRIRRRPPRLPRPRPRPNQHPRP,0.00413
17,RRIRRRPPRLPRPRPRPNSMPRP,-0.233
18,RRIRRRPPRLPRPRPRPNSTPRP,-0.0128
19,RRIRRRPPRLPRPRPRPNTEPRP,0.119
20,RRIRRRPPRLPRPRPRPNTQPRP,0.0214
21,RRIRRRPPRLPRPRPRPNTRPRP,0.162
22,RRIRRRPPRLPRPRPRPNWDPRP,-0.0988
23,RRIRRRPPRLPRPRPRPNWVPRP,0.00352
24,RRIRRRPPRLPRPRPRPNYDPRP,-0.187
25,RRIRRRPPRLPRPRPRPNYLPRP,0.305

row,Sequence,shrunken log2 fold change
1,RRIRRRPPRLPRPRPRPPANPRP,0.731
2,RRIRRRPPRLPRPRPRPPCSPRP,0.112
3,RRIRRRPPRLPRPRPRPPCTPRP,1.59
4,RRIRRRPPRLPRPRPRPPCYPRP,0.473
5,RRIRRRPPRLPRPRPRPPDQPRP,0.764
6,RRIRRRPPRLPRPRPRPPDSPRP,0.289
7,RRIRRRPPRLPRPRPRPPEEPRP,1.37
8,RRIRRRPPRLPRPRPRPPGMPRP,0.821
9,RRIRRRPPRLPRPRPRPPHMPRP,1.11
10,RRIRRRPPRLPRPRPRPPHWPRP,0.932
11,RRIRRRPPRLPRPRPRPPIMPRP,-0.0528
12,RRIRRRPPRLPRPRPRPPKCPRP,0.423
13,RRIRRRPPRLPRPRPRPPLGPRP,0.998
14,RRIRRRPPRLPRPRPRPPLQPRP,0.682
15,RRIRRRPPRLPRPRPRPPRMPRP,0.94
16,RRIRRRPPRLPRPRPRPPRTPRP,1.16
17,RRIRRRPPRLPRPRPRPPTLPRP,0.739
18,RRIRRRPPRLPRPRPRPPVYPRP,0.32
19,RRIRRRPPRLPRPRPRPPWEPRP,0.0894
20,RRIRRRPPRLPRPRPRPPWPPRP,0.667
21,RRIRRRPPRLPRPRPRPPYYPRP,0.108
22,RRIRRRPPRLPRPRPRPQCNPRP,0.0615
23,RRIRRRPPRLPRPRPRPQCTPRP,-0.122
24,RRIRRRPPRLPRPRPRPQDRPRP,0.0852
25,RRIRRRPPRLPRPRPRPQETPRP,0.00135

row,Sequence,shrunken log2 fold change
1,RRIRRRPPRLPRPRPRPQHRPRP,0.266
2,RRIRRRPPRLPRPRPRPQICPRP,-0.0654
3,RRIRRRPPRLPRPRPRPQIHPRP,-0.515
4,RRIRRRPPRLPRPRPRPQIYPRP,-0.1
5,RRIRRRPPRLPRPRPRPQMDPRP,-0.0632
6,RRIRRRPPRLPRPRPRPQNGPRP,-0.0551
7,RRIRRRPPRLPRPRPRPQNPPRP,0.214
8,RRIRRRPPRLPRPRPRPQNYPRP,-0.304
9,RRIRRRPPRLPRPRPRPQPKPRP,0.761
10,RRIRRRPPRLPRPRPRPQQDPRP,0.0793
11,RRIRRRPPRLPRPRPRPQQFPRP,0.0492
12,RRIRRRPPRLPRPRPRPQQVPRP,-0.0275
13,RRIRRRPPRLPRPRPRPQRCPRP,0.177
14,RRIRRRPPRLPRPRPRPQRLPRP,0.124
15,RRIRRRPPRLPRPRPRPQSFPRP,0.0366
16,RRIRRRPPRLPRPRPRPQSYPRP,-0.0292
17,RRIRRRPPRLPRPRPRPQTPPRP,0.881
18,RRIRRRPPRLPRPRPRPQVPPRP,0.11
19,RRIRRRPPRLPRPRPRPQWFPRP,-0.076
20,RRIRRRPPRLPRPRPRPQWLPRP,0.431
21,RRIRRRPPRLPRPRPRPRAFPRP,0.605
22,RRIRRRPPRLPRPRPRPRALPRP,0.482
23,RRIRRRPPRLPRPRPRPRAMPRP,0.145
24,RRIRRRPPRLPRPRPRPRASPRP,0.527
25,RRIRRRPPRLPRPRPRPRCEPRP,0.342

row,Sequence,shrunken log2 fold change
1,RRIRRRPPRLPRPRPRPRCYPRP,0.00798
2,RRIRRRPPRLPRPRPRPRFHPRP,0.0555
3,RRIRRRPPRLPRPRPRPRGFPRP,0.131
4,RRIRRRPPRLPRPRPRPRGPPRP,0.871
5,RRIRRRPPRLPRPRPRPRHWPRP,0.551
6,RRIRRRPPRLPRPRPRPRIGPRP,0.0791
7,RRIRRRPPRLPRPRPRPRMAPRP,0.294
8,RRIRRRPPRLPRPRPRPRNCPRP,-0.0356
9,RRIRRRPPRLPRPRPRPRNHPRP,-0.0441
10,RRIRRRPPRLPRPRPRPRPCPRP,0.384
11,RRIRRRPPRLPRPRPRPRPSPRP,0.781
12,RRIRRRPPRLPRPRPRPRQIPRP,0.452
13,RRIRRRPPRLPRPRPRPRQVPRP,0.466
14,RRIRRRPPRLPRPRPRPRRTPRP,0.46
15,RRIRRRPPRLPRPRPRPRSIPRP,-0.0781
16,RRIRRRPPRLPRPRPRPRTEPRP,0.432
17,RRIRRRPPRLPRPRPRPRYMPRP,-0.378
18,RRIRRRPPRLPRPRPRPSAEPRP,0.716
19,RRIRRRPPRLPRPRPRPSCGPRP,0.0769
20,RRIRRRPPRLPRPRPRPSCLPRP,-0.172
21,RRIRRRPPRLPRPRPRPSGAPRP,0.536
22,RRIRRRPPRLPRPRPRPSHHPRP,-0.173
23,RRIRRRPPRLPRPRPRPSHLPRP,-0.21
24,RRIRRRPPRLPRPRPRPSIKPRP,2.9
25,RRIRRRPPRLPRPRPRPSIPPRP,-0.0753

row,Sequence,shrunken log2 fold change
1,RRIRRRPPRLPRPRPRPSIWPRP,0.032
2,RRIRRRPPRLPRPRPRPSKHPRP,-0.196
3,RRIRRRPPRLPRPRPRPSKNPRP,-0.00571
4,RRIRRRPPRLPRPRPRPSLNPRP,0.00555
5,RRIRRRPPRLPRPRPRPSMCPRP,0.008
6,RRIRRRPPRLPRPRPRPSNRPRP,-0.0253
7,RRIRRRPPRLPRPRPRPSPFPRP,0.292
8,RRIRRRPPRLPRPRPRPSPHPRP,0.334
9,RRIRRRPPRLPRPRPRPSQVPRP,0.0533
10,RRIRRRPPRLPRPRPRPSQWPRP,0.264
11,RRIRRRPPRLPRPRPRPSRMPRP,0.0176
12,RRIRRRPPRLPRPRPRPSRSPRP,0.139
13,RRIRRRPPRLPRPRPRPSSCPRP,0.055
14,RRIRRRPPRLPRPRPRPSSYPRP,-0.0808
15,RRIRRRPPRLPRPRPRPSVQPRP,0.184
16,RRIRRRPPRLPRPRPRPSVVPRP,0.15
17,RRIRRRPPRLPRPRPRPSWCPRP,-0.154
18,RRIRRRPPRLPRPRPRPSWNPRP,-0.157
19,RRIRRRPPRLPRPRPRPSYQPRP,-0.141
20,RRIRRRPPRLPRPRPRPTCCPRP,0.397
21,RRIRRRPPRLPRPRPRPTDIPRP,-0.771
22,RRIRRRPPRLPRPRPRPTDYPRP,-0.00271
23,RRIRRRPPRLPRPRPRPTFLPRP,0.115
24,RRIRRRPPRLPRPRPRPTHCPRP,0.562
25,RRIRRRPPRLPRPRPRPTHPPRP,0.543
